Data on one molecule can be found in paper PMC7057996, “Human glutaredoxin-1 can transfer copper to isolated metal binding domains of the P1B-type ATPase, ATP7B” (Scientific Reports, 2020).

Assay [1] addresses T1, ATP7B metal binding domains 5-6 (human, UniProt P35670 486-633).
T1 construct: Unlabelled apo protein in the NMR titrations; Cloned in pET-24d; also called WLN5-6; ATP7B MBDs 5-6; source: E. coli BL21 Codon Plus (DE3), purified (anion exchange, SEC)
T1 sequence (looked up): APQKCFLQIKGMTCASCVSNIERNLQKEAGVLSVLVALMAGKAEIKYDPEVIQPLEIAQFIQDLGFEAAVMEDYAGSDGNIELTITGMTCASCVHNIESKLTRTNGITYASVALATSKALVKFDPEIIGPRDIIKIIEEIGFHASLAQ
Description: NMR titration; 15N-1H HSQC of apo-15N-hGrx1 (320-350 uM) titrated with unlabelled apo-Atox1 or apo-WLN5-6 to 2.0:1 (partner:hGrx1); no Cu; 4 °C; 10 mM MES/Na, 50 mM NaCl, 1 mM TCEP, pH 6.0; intensity changes of the Cys26 and Thr69 peaks fitted to a 1:1 binding model. The settings on record: both partners purified.

The target in assay [2] is T1, ATP7B metal binding domains 5-6. Description: cell-based or functional assay.

B1: human glutaredoxin-1 (enzyme)
chain: MAQEFVNCKIQPGKVVVFIKPTCPYCRRAQEILSQLPIKQGLLEFVDITATNHTNEIQDYLQQLTGARTVPRVFIGKDCIGGCSDLVSLQQSGELLTRLKQIGALQ
notes: human glutaredoxin-1 (hGrx1), UniProtKB P35754; printed as a 106-residue construct (excluding non-native residues left at the N-terminus by cleavage); 15N-labelled (or 13C/15N-labelled) for NMR; used as apo protein and loaded with Cu(I) (1:1); Non-native residues of the PreScission site remain at the N-terminus; also called hGrx1; Grx1; source: E. coli BL21 Codon Plus (DE3), purified (glutathione …)
With B1, the dissociation constant (Kd) – broadly, the constant that tells how readily two partners part at equilibrium – in assay [1] was determined as 7 ± 4 µM. Also, the “Cu(I) distribution WLN5-6:hGrx1/Atox1 after incubation of Cu(I)-hGrx1 with apo-Atox1 and apo-WLN5-6 at 1:1:1, SEC-ICP-MS” value in assay [2] is ~9 ratio WLN5-6:hGrx1/Atox1.
